For this assay, the target named is T1, mouse ASIC1a (mouse, UniProt Q6NXK8 1-526).
T1 construct: whole, on cells; Expressed on stably transfected 3T3 cells (3T3/mASIC1a); also called mASIC1a
T1 sequence (looked up): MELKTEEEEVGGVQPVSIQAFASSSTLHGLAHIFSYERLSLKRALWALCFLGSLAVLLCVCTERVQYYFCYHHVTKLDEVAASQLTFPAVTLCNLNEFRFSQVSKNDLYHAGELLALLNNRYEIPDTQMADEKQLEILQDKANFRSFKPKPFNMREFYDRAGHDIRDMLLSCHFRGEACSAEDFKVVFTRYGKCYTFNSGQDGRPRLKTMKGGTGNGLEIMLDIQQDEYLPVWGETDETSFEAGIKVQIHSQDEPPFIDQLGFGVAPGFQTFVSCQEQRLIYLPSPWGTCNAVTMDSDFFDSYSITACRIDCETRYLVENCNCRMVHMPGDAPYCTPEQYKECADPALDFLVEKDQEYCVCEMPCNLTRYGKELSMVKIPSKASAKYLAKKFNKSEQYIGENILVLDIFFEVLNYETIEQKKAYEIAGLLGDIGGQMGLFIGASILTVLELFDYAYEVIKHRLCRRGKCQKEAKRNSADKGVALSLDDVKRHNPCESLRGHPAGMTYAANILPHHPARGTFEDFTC
The experiment in a line: FACS, 3T3/mASIC1a cells. The source says: To further characterize anti-ASIC1 antibodies, their ability to bind either (a) a mouse fibroblast 3T3 cell line stably transfected to overexpress full length human ASIC1 (3T3/hASIC1; amino acids 1-528 of NCBI accession number NP_{—}001086.2 [SEQ ID NO:401]), (b) a 3T3 cell line stably transfected to over express full length mouse ASIC1a (3T3/mASIC1a; amino acids 1-526 of NCBI accession number NP_{—}033727), or (c) a ND7 cell line (ECACC, #92090903) that is a fusion cell line of mouse neuroblastoma and rat dorsal root ganglia that endogenously expresses rat ASIC1, was determined using flow cytometry (FACS). ND7 cells were differentiated by replacing the culture media with low-serum media (0.5% FBS) containing 1 mM dibutyryl-cAMP (Cat. No. sc-201567A, Santa Cruz Biotechnology, Inc., Santa Cruz, Calif.). FACS binding was tested for some antibodies on both undifferentiated ND7 cells and differentiated ND7 cells.
To perform the FACS binding experiments, adherent cells were collected using 1 mM EDTA in PBS, then washed, and re-suspended in cold PBS containing 5% FBS. For each binding experiment, each anti-ASIC1 antibody (at final concentrations of 10 nM of purified antibodies or 3.3 nM for antibody supernatants for binding to 3T3/hASIC1 cells and 5 nM for binding to 3T3/mASIC1a or ND7 cells) was added to 250,000 cells in 500 μL of PBS with 5% FBS. After incubation for 20 minutes at room temperature, a secondary antibody which recognizes human Fc (Cat. No. 109-136-098, Jackson ImmunoResearch Laboratories, Inc., West Grove, Pa.) or mouse Fc (Cat. No. 550826, BD Biosciences, San Jose, Calif.) and is conjugated to allophycocyanin, was then added to the cell mixture at a final concentration of 13.3 nM. After incubating for 20 minutes on ice, the cells were washed and resuspended in PBS containing 5% FBS, then sorted and analyzed on a flow cytometer (FACSCalibur, BD Biosciences, San Jose, Calif.) to determine relative binding by the candidate antibodies to the tested cell lines. Histograms of cells stained with anti-ASIC1 antibodies were compared with those of cells stained with secondary antibody alone. Percentage of ASIC1 signal over secondary antibody alone was calculated using FlowJo software (Tree Star, Ashland, Oreg.).
(In general: A flow cytometer gives signals particle by particle.)

B1: H3M7102N (antibody, V domains shown)
VH: EVQLLASGGGLVQPGGSLRLSCAASGFTFSSFAMSWVRQAPGKGLEWVSGISGSGGSTYYADSVKGRFTISRDNSKNTLYLQMNSLRAEDTAAYYCAKEAYKWQPWGQGIRVTVSS
VL: DIQMTQSPSTLSASVGDRVSITCRASQSISSWLAWYQQKPGKAPKLLIYKASNLDSGVPSRFSGSGSGTDFTLTISSLQPDDFATYYCQQYNSYSYTFGQGTKLEIK
notes: Chimeric: human variable, mouse constant domains; H3M prefix marks the Fc, isotype not spelled out
Consider B1, for which the binding result is “binds”.

B2: H3M6726N (antibody, V domains shown)
VH: EVQLLESGGVLVQPGGSLRLSCAASGFNFNNYDMSWVRQAPGKGLEWVSVISASGRNTYYADSVKGRFTISRDNSKISLYLQMNSLRPEDTAVYYCAKDHLVHYYYGMDVWGQGTTVTVSS
VL: DIMMTQSPLSLSVTPGEPASISCRSSQSLLHSNGYNYLDWYLQKSGQSPHLLIYLGSNRASGVPDRFSGSGSGTDFTLKISRVEAEDGGVYYCMQALQTPRTFGQGTKVEIK
notes: as for B1
B2: the binding result is on record as “binds”.

Source of the values: patent US20140056907A1 (Regeneron, published 2014).
